# The supplement of paper PMC10567573
# ± gives the standard deviation.
# Experiment: protein stability index of a GFP-peptide fusion (GPS, HEK-293T) (PSI 1-6); higher = more stable
# [1] = treatment: DMSO, c terminus: a fixed tail appended
# [2] = treatment: MLN4924 1 uM, 8 h, c terminus: a fixed tail appended
# [3] = treatment: DMSO, c terminus: native
# [4] = treatment: MLN4924 1 uM, 8 h, c terminus: native
# 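Note: 24-mer peptide tiles fused after GFP, lentivirally expressed, FACS-sorted into six equal bins by GFP/DsRed ratio, decoded by Illumina sequencing, PSI is the read-weighted mean bin number.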
Sequence,protein stability index [1],protein stability index [2],protein stability index [3],protein stability index [4]
FWHDTLTEQLWRIFAGVHDEKAKP [TLE6],2.23 ± 0.41,2.41 ± 0.76,,
SLQERKQALYEYARRRFTERRAQE [AUP1],4.53 ± 0.18,4.44 ± 0.21,,
CYYCQAYVHHQALLDVKNIAHQNK [HDAC6],2.61 ± 0.33,2.33 ± 0.48,,
FIMLLIGIVLPVFYLVYFKIQASG [LYSMD4],2.31 ± 0.22,2.01 ± 0.54,,
ANETYENNFDNLDFDLDLVPWESD [ATF6],5.07 ± 0.24,4.82 ± 0.23,,
NWRRKHEEFIATIRAAKGLDQALK [ZC2HC1A],2.71 ± 0.18,2.78 ± 0.24,,
RQSYDISIVAQVDQTGSKSSNLLD [CARM1],3.93 ± 0.092,4.07 ± 0.17,,
CGRAFSRKSLLVVHQRTHTGEKPH [ZNF649],2.69 ± 0.26,2.64 ± 0.093,,
ESDDAFDTVTIPVPSEEPQESDQT [IQUB],5.69 ± 0.24,5.72 ± 0.3,,
SALPLAPNHLGGGAVVLGAESHAS [STX5],4.22 ± 0.32,4.32 ± 0.53,,
MEAYLPKKNGLYLSLVLGNVNVTL [TMEM120A],3.28 ± 0.49,3.44 ± 0.35,,
GRRLKSPQAPDPEEEENRDSQQPG [FANCE],5.44 ± 0.25,5.67 ± 0.27,,
RRLLRRLSPSRGVAQCLRDLVAMQ [ZSWIM9],2.49 ± 0.36,2.89 ± 0.32,,
SWRTLAILVNLQGTVVFLLSLFIP [SLC22A15],3.4 ± 0.53,2.89 ± 0.11,,
PLRPLLGFRESDSAKPASLRLLQH [C6orf223],3.41 ± 0.39,3.6 ± 0.27,,
TEVPFSITTDNLQCRERREHPNLV [TEKT4],4.17 ± 0.15,4.1 ± 0.15,,
IPYFITLGTELAERQGNGQQAMSL [KCNA3],3.03 ± 0.59,3.01 ± 0.37,,
NGMAIIRPPGHHAQHSLMDGYCMF [HDAC6],2.37 ± 0.17,2.21 ± 0.31,,
VNVPGSFVCQCYSGYALAEDGKRC [MATN2],2.75 ± 0.42,3.05 ± 0.46,,
EFFLEQTKKKGVKRPARLHTKPSQ [NOP53],3.66 ± 0.55,3.68 ± 0.5,,
PPQLRPGAPTSLQTEPQDRSPAPM [BCL2L11],,5.18 ± 0.077,,
PNPPTLQEAGLSHTEVLFVQDLTD [FAF2],4.54 ± 0.27,4.64 ± 0.16,,
VLEMFDLRMMVENIMNKEAFMNQE [RHOBTB1],2.47 ± 0.45,2.33 ± 0.26,,

Sequence,protein stability index [1],protein stability index [2],protein stability index [3],protein stability index [4]
SQHRRIHSGEKPFICKECGKAYGW [ZNF232],2.67 ± 0.27,2.97 ± 0.64,,
RPTSCWQLDWDELETNQQHFHALC [M1AP],2.39 ± 0.21,2.77 ± 0.38,,
LGETKAYVFFEKDFGDMHSYVRSR [TRIB1],2.62 ± 0.42,2.37 ± 0.11,,
SYIGLPYADHNYGARPPPTPPASP [KMT2E],4.66 ± 0.32,4.73 ± 0.24,,
INKEELEGNSMRCGRKLAKDGEYC [GMCL1],4.04 ± 0.36,4.15 ± 0.49,,
ARKAMRNGISPIIIDNTNLHAWEM [N4BP2L1],2.33 ± 0.25,2.25 ± 0.42,,
EAVKYYTLEEIQKHNHSKSTWLIL [CYB5A],2.44 ± 0.65,2.3 ± 0.24,,
LLEPEEGGRAYQALHCPTGTEYTC [TRIB3],3.8 ± 0.31,4.1 ± 0.23,,
GDTKRATPIEVLCENFPEMATYLR [CSNK1G3],3.04 ± 0.33,2.97 ± 0.38,,
GAIAVFVYASDKEWIRFDQSNVLC [PTGFR],3.02 ± 0.34,2.87 ± 0.47,,
LLIANKRQSYDISIVAQVDQTGSK [CARM1],2.47 ± 0.25,2.52 ± 0.26,,
CAFLLLRLLVGLALATLRVLRGLA [TMEM175],3.56 ± 0.37,3.35 ± 0.086,,
AEVSWEPGRREGCDICAGKAGCPI [RPS21],3.29 ± 0.31,3.89 ± 0.26,,
GGEGVEVELLHNTSYTRQACLVSC [SCNN1D],2.9 ± 0.2,2.55 ± 0.31,,
LLASSDAALSASMASLLEDLSHIE [SERTAD1],3.06 ± 0.37,3.27 ± 0.33,,
EESTPGQTNSETAVVALTQDQPSE [HDAC6],5.49 ± 0.22,5.59 ± 0.34,,
LPIVKLLAKQPGVSVNAQTLDGRT [RIPK4],2.71 ± 0.17,3.13 ± 0.56,,
QFSSRDCTRPVPRNGGKYCEGRRT [ADAMTS4],4.22 ± 0.47,4.51 ± 0.55,,
GSAGGLGSTLGGSSYSSCYSFGSG [KRT17],3.29 ± 0.13,3.43 ± 0.33,,
SIMEMQAMEVNTSASEILYSAPPG [NFE2L1],3.81 ± 0.33,3.94 ± 0.28,,
NPEEDEDQRNPAKESLETPSNGRI [SOAT1],5.76 ± 0.064,5.62 ± 0.077,,
EMEEGVKESLCAKEEKCQGKGDDS [KCNA4],5.62 ± 0.19,5.57 ± 0.33,,
GGQESSGLNLGKKISVPRDVMLEE [MYOZ1],5.07 ± 0.27,5.1 ± 0.23,,

Sequence,protein stability index [1],protein stability index [2],protein stability index [3],protein stability index [4]
TNITEVDAASVYTLPAGADFLMCY [CASP6],2.35 ± 0.34,2.18 ± 0.25,,
QNLYFNCSSPGVQACSLPASCCID [TSPAN10],3.12 ± 0.22,3.25 ± 0.2,,
MRDRHVNMHLNLRPFDCPVCNKKF [ZBTB22],2.99 ± 0.32,3.44 ± 0.55,,
LEETKGRYCMQLSQIQGLIGSVEE [KRT16],3.91 ± 0.17,3.91 ± 0.2,,
CYSEEITVCGDLHGQLDDLIFIFY [PPEF2],2.96 ± 0.43,2.65 ± 0.46,,
GRKKYDIDPRNGIPKLTPGDNPYM [SPATS1],3.57 ± 0.18,3.71 ± 0.32,,
AANPRPDALMKEQLVEMTGLSPRV [ISL2],4.17 ± 0.27,4.19 ± 0.33,,
MDSDMDYERPNVETIKCVVVGDNA [RHOBTB2],4.74 ± 0.21,4.87 ± 0.22,,
LHDNHEQMPTEIEFPESRKPISTK [ZNF649],5.1 ± 0.22,5.25 ± 0.31,,
HSGEKPFICKECGKAYGWCSELIR [ZNF232],2.22 ± 0.25,2.72 ± 0.66,,
PEVEVQVKRRRTASLSNQECQLYP [SNURF],4.77 ± 0.2,4.84 ± 0.17,,
LARKGSLKNGSMGSPVNQQPKKNN [FAM219A],4.85 ± 0.25,4.77 ± 0.065,,
MRQFLRGLDFLHANCIVHRDLKPE [CDK4],2.21 ± 0.22,2.23 ± 0.13,,
SASVIFEGVDIKNGTEDLPYAMKP [NSDHL],4.39 ± 0.12,4.28 ± 0.26,,
ENRTLQVLRAEHRGFQEENKALWE [CBY2],4.37 ± 0.37,4.38 ± 0.17,,
IAHRGERRGIGGIFFDDLDSPSKE [CPOX],4.57 ± 0.4,4.72 ± 0.21,,
LKEFDLDALLGIDDLETMPDDLLT [ATF4],3.81 ± 0.2,4.05 ± 0.38,,
QAWGSMLEVPAGSRLNLTGLGYFS [CCDC3],2.35 ± 0.3,1.79 ± 0.2,,
NVVVHDWLYYYAYKDFLWFFSKRF [SOAT1],2.18 ± 0.35,2.17 ± 0.44,,
AKLGTQAEKDRRLKKKHQLLEDAR [PPFIA4],4.26 ± 0.37,4.44 ± 0.1,,
TGPLQPQPKKPEDEPQETAYRTQV [PKD2L1],5.11 ± 0.45,5.3 ± 0.2,,
GTEQAPYGMQTQNYPKGGLLDSMC [ETS2],3.59 ± 0.17,3.84 ± 0.4,,
SERAEVQRLEEQERRHREEKERRK [RSPH3],5.31 ± 0.47,5.673 ± 0.05,,

Sequence,protein stability index [1],protein stability index [2],protein stability index [3],protein stability index [4]
VVLDMEEGTLGYAIGGTYLGPAFR [SPSB2],2.37 ± 0.24,2.19 ± 0.074,,
SSDVSTAGTGASRSSHSSDSGGSD [ELF3],5.44 ± 0.32,5.565 ± 0.049,,
SAQRSKDPNSQVGACIVNSENKIV [DCTD],4.91 ± 0.17,4.98 ± 0.12,,
SLSVFTEPNRHFYREMQSFSEDI [FBXO33],,,3.26 ± 0.32,3.33 ± 0.27
GVKISEQQAEKILKSMDKNGTMTI [SLC25A25],3.73 ± 0.13,3.7 ± 0.22,,
LDDRKNEEDGGADEHEHPLTSELD [MIA2],5.76 ± 0.12,5.26 ± 0.38,,
DRADYYLEEFKENAYKDLAWKHGN [PCMTD2],3.75 ± 0.084,3.07 ± 0.77,,
MAAGFPYALRAYLGYQAVPSGSSG [CEBPB],2.1 ± 0.3,2.04 ± 0.18,,
GSVALGPVCPTVCPPGGIHQVTVN [KRT71],3.55 ± 0.34,3.52 ± 0.28,,
AGGTSDDPEPSGPHLPRVMLPGVL [SCNN1D],4.14 ± 0.21,4.16 ± 0.13,,
LQRASILDMRRDHEEQLQRLKLLK [FBF1],3.43 ± 0.48,3.72 ± 0.33,,
PPETSLPYKWVVEAANLLIPAVGS [MYBL2],2.41 ± 0.42,2.27 ± 0.29,,
IFTTPNFDETSSATTISTSEDGSY [KMT2E],4.75 ± 0.13,4.67 ± 0.26,,
SGPPASYCAKLCEPQWFYEETESS [C8orf76],4.02 ± 0.12,4.37 ± 0.19,,
QGVHQGAGFQDIPKRCLKAREHFG [TSN],3.31 ± 0.36,2.9 ± 0.27,,
AELHAHGPAAFVDYFERNWEPRRD [ZSWIM9],3.89 ± 0.3,4.07 ± 0.23,,
DEEERRRRVFDVPIRRRRCSRLF [FBXO3],,,3.32 ± 0.61,3.73 ± 0.82
LQDQEKAWGFPENATAPRSPSHSP [ELOA2],5.38 ± 0.26,5.4 ± 0.26,,
KVEVDMEKIAAEIAQAEEQARKRQ [SMARCE1],4.99 ± 0.27,4.78 ± 0.37,,
SDLFSLAEEYEDSSTKPPKSRRKA [INTS3],5.15 ± 0.34,5.33 ± 0.36,,
